Test results taken from patent publication US20140037650A1 (UNIVERSITY OF CHICAGO, published 2014).

T1: GST-tagged IsdA (Staphylococcus aureus, UniProt A5IS16 47-316)
T1 sequence: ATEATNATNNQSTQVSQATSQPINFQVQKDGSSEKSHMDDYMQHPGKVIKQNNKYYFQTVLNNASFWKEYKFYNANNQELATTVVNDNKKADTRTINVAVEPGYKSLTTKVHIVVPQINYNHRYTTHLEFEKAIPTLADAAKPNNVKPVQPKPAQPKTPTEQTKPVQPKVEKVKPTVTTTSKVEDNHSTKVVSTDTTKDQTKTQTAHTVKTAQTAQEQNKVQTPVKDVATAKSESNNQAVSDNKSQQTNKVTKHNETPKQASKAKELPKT


What was measured:
GST-tagged IsdA = target: T1, GST-tagged IsdA; experiment: cell-based or functional assay
[1] = target: T2, Poly-histidine tagged IsdB (Staphylococcus aureus, UniProt A5IS15 41-613); experiment: ELISA, coated poly-His IsdB
T2 construct: also called IsdBFL; recombinant IsdB
Protocol: Proteins were used to coat Nunc MaxiSorp 96-well plates at a concentration of 1 μg ml⁻¹ PBS. Plates were washed and incubated with PBS-Tween and variable concentrations of MAbs.

GST-tagged IsdBC = GST-tagged IsdBC (Staphylococcus aureus Newman, UniProt A5IS15 328-645); experiment: cell-based or functional assay

Binder | Δheme binding: percent change in Δ peak absorbance at 405 nm and 368 nm (GST-tagged IsdA) [%] | binding result [1] | Δheme binding: percent change in Δ peak absorbance at 405 nm and 368 nm (GST-tagged IsdBC) [%]
MAb 5H8 (antibody, V domains shown, also called 5H8.9) VH: GLTGEPGTSVKMSCRTSGYTFTEYTMHWVKQSHEKRLEWIGGIDPSNGDTSYNQKFKGKATLTVDKSSSSAYMDLRSLTSVDSAIYYCARLEGVLPLDYWGHGTTLTVSS VL: DIVMTQSQKFMSTSVRDRVAVTCKASQNVGTNVAWYQQKPGQSPKALIYSASYRYSGVPDRFTGSGSGTDFTLTISNVQSEDLAEYFCQQYNSYPYTFGGGTKLEVK | 0.5 | no binding | –
MAb 3H11 (antibody, V domains shown, also called 3H11.47) VH: SLDLTGEPGASVKMSCRTSGYTFTEYTMHWVKQSHEKSLEWIGGIDPDNGDTSFNQKFKGKATLTVDKSSSTAYMELRSLTYDDTAIYLCARLEGVLPLDYWGQGTTLTVSS VL: DIVMTQSQKFMSTSVRDRVAVTCKASQNVGTNVAWYQQKPGQSPKALIYSASYRYSGVPDRFTGSGSGTDFTLTISNVQSEDLAEYFCQQYNSYPYTFGGGTKLEVK | 0.5 | no binding | –
MAb 3D8 (antibody, V domains shown) VH: QVQLQQSGAELVRPGTSVKVSCKASGNAFTNYLIEWIKQRPGQGLEWIGVINPGSGITNYNEKFKGKATLTADKSSNTAYMQLSSLSSDDSAVYFCSGSANWFAYWGQGTLVTVSA VL: DVVMTQTPLSLPVSLGDQASISCRSSQSLVYSNGNTYLHWFLQKPGQSPKLLIYKVSNRFSGVPDRFSGSGSGTDFTLKISRVEAEDLGVYFCSQTTHIPLTFGAGTKLELK | 34 | – | 29.4
MAb 4H7 (antibody, V domains shown) VH: EVQLLQSGPELVKPGTSVKMSCRTSGYTFTEYTMHWVKQSHEKRLEWIGGIDPSNGDTSYNQKFKGKATLTVDKSSSSAYMDLRSLTSVDSAIYYCARLEGVLPLDYWGHGTTLTVSS VL: DVVMTQTPLSLPVSLGDQASISCRSSQSLVYSNGNTYLHWFLQKPGQSPKLLIYKVSNRFSGVPDRFSGSGSGTDFTLKISRVEAEDLGVYFCSQTTHIPLTFGAGTKLELK | 34.4 | – | 29
MAb 7E9 (antibody, V domains shown) VH: DVQLQESGPGLVKPSQSLSLTCSVTGHSITSGYYWNWIRQFPGNKLEWMGYISFDGRNKYNPSLKNRISITRDTSKNQFFLKLNSVTSEDTATYFCTRLSYSTLDYWGQGTSVTVSS VL: DVVMTQTPLSLPVSLGDQASISCRSSQSLLYSNGNTYLHWYLQKPGQSPKLLIYKVSNRFSGVPDRFSASGSGTDFTLKISRVEAEDLGVYFCSQSTHVPLTFGAGTKLELK | 35 | – | 29
MAb 7D4 (antibody, V domains shown) VH: EVQLQESGPELVKPGTSVWISCKTSGFTFTKYTMHWVKQSHGKTLEWIGGIDPNNGDTSYNQKFKDKATLTVDKSSSTAYMELRSLTSEDSAVFFCVRLEGSLPLDYWGQGTTLTVSS VL: DVGMTQTPLSLPVSLGDQASISCGSSQSLLHSNGKTYLHWYLQKPGQSPKLLIYKVSNRFSGVPDRFSGSGSGTYFTLKITRVEAEDLGVYFCSQTTHVPFTFGSGTKLEIK | -0.6 | – | –
MAb 1B8 (antibody, V domains shown) VH: EVQLQESGPELVKPGTSVWISCKTSGFTFTKYTMHWVKQSHGKTLEWIGGIDPNNGDTSYNQKFKDKATLTVDKSSSTAYMELRSLTSEDSAVFFCVRLEGSLPLDYWGQGTTLTVSS VL: DVVMTQTPLSLPVSLGDQASISCRSSQSLVHSNGNTYLHWYLQKPGQSPKLLIYKVSSRFSGVPDRFSGSGSGTDFTLKISRVEAEDLGVYFCSQSTHVPYTFGGGTKLEIKR | 0.5 | – | –
